Results from US20170190773A1 (IGYXOS, published 2017).

Experiments:
[1] = molecular target: human FSH (preparation not named) (human, UniProt P01215 25-116; P01225 19-129); assay: cell-based or functional assay
[2] = molecular target: T1, ovine FSH (ovine, UniProt P01218 25-120; P01227 20-129); assay: cell-based or functional assay
[3] = molecular target: porcine FSH (porcine, UniProt P01219 25-120; P01228 21-129); assay: cell-based or functional assay
[4] = molecular target: human FSH Gonal-F (recombinant human FSH, Merck Serono) (human, UniProt P01215 25-116; P01225 19-129); assay: cell-based or functional assay
[5] = molecular target: T2, porcine LH (porcine, UniProt P01219 25-120; P01232 21-141); assay: ELISA; hormone adsorbed on the plate (10 µg/ml), scFv at 200 µg/ml, anti-His Tag HRP
Method: (§1) Each hormone evaluated was prepared at the concentration of 10 μg/ml in a 0.1 M sodium carbonate buffer, pH 9.6, and distributed in a proportion of 100 μl per well on an ELISA plate. The adsorption time was 18 hours at +4° C. After five washes, the wells were treated with 100 µl of PBS supplemented with 0.1% Tween and 1% BSA for 45 minutes at 37° C., then each antibody or scFv was distributed in a proportion of 100 μl/well and incubated for one hour at 37° C. On each hormone evaluated, the antibody and the scFv were distributed at various concentrations according to a range of 10 to 250 μg/ml for the antibodies and of 10 to 150 or 200 μg/ml for the scFv.
(§2) After five washes, a secondary antibody coupled to peroxidase (HRP) was distributed in a proportion of 100 µl/well and incubated for one hour at 37° C. Depending on the isotype of the monoclonal antibody studied, the secondary antibody was an anti-IgG1 HRP (Ref. 115-035-205, Jackson ImmunoResearch Laboratories Inc), an anti-IgG2a HRP (Ref. 115-035-206, Jackson Laboratories) or an anti-IgM HRP (Ref. 115-035-075, Jackson Laboratories). For the scFvs, an anti-His Tag HRP (Ref. R93125 Life Technologies, France) was used. […] After the reaction had been stopped with 1 M H₂SO₄ (50 μl/well), the strength of the colored reaction (optical density) was measured using a spectrophotometer for ELISA plates.

[6] = molecular target: T3, bovine LH (bovine, UniProt P01217 25-120; P04651 21-141); assay: as above
Method: as §1, §2

[7] = molecular target: T4, equine chorionic gonadotropin (equine, UniProt P01220 25-120; P08751 21-169); assay: as above
T4 construct: also called eCG
Method: as §1, §2

[8] = molecular target: T5, hCG Chorulon (human chorionic gonadotropin extracted from urine of pregnant women, MSD) (human, UniProt P01215 25-116; P0DN86 21-165); assay: as above
T5 construct: Commercial urinary hCG, veterinary preparation
Method: as §1, §2

[9] = molecular target: T6, hCG Endo 5000 (purified human chorionic gonadotropin, Schering-Plough) (human, UniProt P01215 25-116; P0DN86 21-165); assay: as above
T6 construct: Commercial purified hCG
Method: as §1, §2

[10] = molecular target: T7, ovine LH (ovine, UniProt P01218 25-120; P01231 21-141); assay: as above
Method: as §1, §2

[11] = molecular target: T2, porcine LH; assay: ELISA saturation binding on adsorbed hormone; Kd estimated with GraphPad Prism 'One site-Specific binding'
Method: as §1, §2
(§3) An estimation of the dissociation constant Kd of the scFv, with respect to the various FSH, LH and CG studied, was calculated on GraphPad Prism (GraphPad Software Inc., San Diego, Calif., USA, version 5) using the “One site—Specific binding” function in a saturation binding model (“saturation binding experiment model”, GraphPad PRISM software).

[12] = molecular target: T3, bovine LH; assay: as above
Method: as §1, §2, §3

[13] = molecular target: T4, equine chorionic gonadotropin; assay: as above
Method: as §1, §2, §3

[14] = molecular target: T5, hCG Chorulon (human chorionic …); assay: as above
Method: as §1, §2, §3

[15] = molecular target: T6, hCG Endo 5000 (purified human chorionic …); assay: as above
Method: as §1, §2, §3

[16] = molecular target: T1, ovine FSH; assay: as above
Method: as §1, §2, §3

[17] = molecular target: T8, hMG Menopur (human menopausal gonadotropin, Ferring Pharmaceuticals) (human); assay: as above
T8 construct: numbers for it cannot be laid to one hormone
Method: as §1, §2, §3

[18] = molecular target: T7, ovine LH; assay: as above
Method: as §1, §2, §3

T6 sequence (P01215 25-116, chain 1 of 2, other chains not shown): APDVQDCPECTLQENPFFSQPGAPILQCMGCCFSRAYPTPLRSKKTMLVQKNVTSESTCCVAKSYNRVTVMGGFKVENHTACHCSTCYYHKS
T5 sequence (P01215 25-116, chain 1 of 2, other chains not shown): as above
T4 sequence (P01220 25-120, chain 1 of 2): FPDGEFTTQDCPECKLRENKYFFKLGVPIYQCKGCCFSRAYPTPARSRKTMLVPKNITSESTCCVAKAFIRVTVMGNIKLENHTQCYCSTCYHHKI
T4 sequence (P08751 21-169, chain 2 of 2): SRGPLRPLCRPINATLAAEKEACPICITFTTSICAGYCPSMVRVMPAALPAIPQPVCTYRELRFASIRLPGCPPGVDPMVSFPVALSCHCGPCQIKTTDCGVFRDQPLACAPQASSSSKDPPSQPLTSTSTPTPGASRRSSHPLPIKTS
Chain of human FSH (preparation not named) (P01215 25-116, chain 1 of 2): as the sequence (P01215 25-116, chain 1 of 2, other chains not shown) above
Chain of human FSH (preparation not named) (P01225 19-129, chain 2 of 2): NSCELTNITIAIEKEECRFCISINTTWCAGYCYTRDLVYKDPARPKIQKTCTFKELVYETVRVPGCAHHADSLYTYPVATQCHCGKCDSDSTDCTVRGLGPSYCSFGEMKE
Chain of human FSH Gonal-F (recombinant human FSH, Merck Serono) (P01215 25-116, chain 1 of 2): as the sequence (P01215 25-116, chain 1 of 2, other chains not shown) above
Chain of human FSH Gonal-F (recombinant human FSH, Merck Serono) (P01225 19-129, chain 2 of 2): as the sequence (P01225 19-129, chain 2 of 2) above

B1: CF12 monoclonal antibody (antibody, IgM, V domains shown)
VH: QGQMQQSGAELVKPGASVKLSCKTSGFTFSSSYISWLKQKPGQSLEWIAWIYAGTGGTSYNQKFTGKAQLTVDTSSSTAYMQFSSLTTEDSAIYYCARHGSYFDYWGQGTTLTVSS
VL: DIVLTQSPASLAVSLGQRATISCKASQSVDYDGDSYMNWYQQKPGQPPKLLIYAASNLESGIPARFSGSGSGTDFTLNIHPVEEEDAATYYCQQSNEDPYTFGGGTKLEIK
[1]
  cAMP secretion of bovine granulosa cells, hFSH 3-25 ng/ml pre-complexed with 0.1 µg/ml CF12 against hFSH alone: 2.5 fold
[2]
  increase in the bioactivity of the hormone, LogEC50, GloSensor HEK 293 hFSHR cells: 1.06 LogEC50
[3]
  increase in the bioactivity of the hormone, LogEC50, GloSensor HEK 293 hFSHR cells: 0.717 LogEC50
[4]
  increase in the bioactivity of the hormone, LogEC50 units, GloSensor HEK 293 hFSHR cells: 0.7 LogEC50 units

B2: CF12 scFv (scFv)
scFv: QVQLQQSGGAELVKPGASVKLSCKTSGFTFSSSYISWLKQKPGQSLEWIAWIYAGTGGTSYNQKFTGKAQLTVDTSSSTAYMQFSSLTTEDSAIYYCARHGSYFDYWGQGTTLTVSSGGGGSGGGGSGGGGSDIQMTQTPASLAVSLGQRATISCKASQSVDYDGDSYMNWYQQKPGQPPKLLIYAASNLESGIPARFSGSGSGTDFTLNIHPVEEEDAATYYCQQSNEDPYTFGGGTKLEIKHHHHHH
notes: Made in E. coli periplasm; also called scFv derived from the CF12 antibody
[5]
  optical density: 2.2 optical density units
[6]
  optical density: 2.2 optical density units
[7]
  optical density: 0.6 optical density units
[8]
  optical density: 0.35 optical density units
[9]
  optical density: 0.38 optical density units
[10]
  optical density: 2 optical density units
[11]
  Kd: 4.73 µM
[12]
  Kd: 5.03 µM
[13]
  Kd: 6.12 µM
[14]
  Kd: 5.07 µM
[15]
  Kd: 6.24 µM
[16]
  Kd: 3.78 µM
[17]
  Kd: 14 µM
[18]
  Kd: 5.81 µM
